Article PMC9674253

Legend:
[1] = biological target: NPAS4 (1-348);ARNT (82-465) (mouse;mouse, UniProt Q8BGD7;P53762 1-348;82-465, |); assay: fluorescence polarization
[2] = biological target: NPAS4 (1-348);ARNT2 (50-439) (mouse;mouse, UniProt Q8BGD7;Q61324 1-348;50-439, |); assay: fluorescence polarization
Sequence of NPAS4 (1-348);ARNT2 (50-439) (Q8BGD7 1-348, chain 1 of 2): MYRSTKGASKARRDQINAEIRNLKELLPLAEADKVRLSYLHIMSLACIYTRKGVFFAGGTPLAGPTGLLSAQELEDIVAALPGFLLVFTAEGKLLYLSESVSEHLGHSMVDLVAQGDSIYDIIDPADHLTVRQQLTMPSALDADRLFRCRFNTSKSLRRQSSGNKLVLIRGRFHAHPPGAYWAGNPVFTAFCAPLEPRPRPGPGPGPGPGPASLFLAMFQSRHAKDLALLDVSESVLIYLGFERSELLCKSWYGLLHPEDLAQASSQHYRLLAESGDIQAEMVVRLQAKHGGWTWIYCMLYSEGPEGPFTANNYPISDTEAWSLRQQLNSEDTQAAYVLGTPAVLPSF
Sequence of NPAS4 (1-348);ARNT2 (50-439) (Q61324 50-439, chain 2 of 2): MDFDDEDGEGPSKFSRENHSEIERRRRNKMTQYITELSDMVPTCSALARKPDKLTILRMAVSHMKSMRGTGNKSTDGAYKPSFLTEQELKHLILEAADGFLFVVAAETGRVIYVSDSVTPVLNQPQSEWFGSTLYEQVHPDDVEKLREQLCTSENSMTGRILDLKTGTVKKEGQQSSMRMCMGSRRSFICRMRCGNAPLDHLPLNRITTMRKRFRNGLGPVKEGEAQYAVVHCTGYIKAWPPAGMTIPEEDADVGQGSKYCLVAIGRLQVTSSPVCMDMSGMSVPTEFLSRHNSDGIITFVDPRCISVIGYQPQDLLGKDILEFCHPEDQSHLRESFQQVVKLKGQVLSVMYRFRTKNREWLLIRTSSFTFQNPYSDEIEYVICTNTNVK

Sequence of NPAS4 (1-348);ARNT (82-465) (Q8BGD7 1-348, chain 1 of 2): as the sequence (Q8BGD7 1-348, chain 1 of 2) above
Sequence of NPAS4 (1-348);ARNT (82-465) (P53762 82-465, chain 2 of 2): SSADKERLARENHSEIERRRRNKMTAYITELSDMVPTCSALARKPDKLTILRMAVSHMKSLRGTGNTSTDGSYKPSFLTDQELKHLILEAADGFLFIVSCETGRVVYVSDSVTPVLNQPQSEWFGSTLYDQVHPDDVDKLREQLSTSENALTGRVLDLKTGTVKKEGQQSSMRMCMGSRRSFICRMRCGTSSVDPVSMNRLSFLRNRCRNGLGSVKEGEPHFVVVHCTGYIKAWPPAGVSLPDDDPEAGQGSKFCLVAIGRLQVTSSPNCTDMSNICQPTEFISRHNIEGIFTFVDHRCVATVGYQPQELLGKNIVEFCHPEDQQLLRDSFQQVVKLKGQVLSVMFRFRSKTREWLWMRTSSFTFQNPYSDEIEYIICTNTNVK

B1: 21-mer NPAS4 response element (FP) (dsDNA)
DNA 1: GGATGAGGTCGTGAGTGATGA
DNA 2: TCATCACTCACGACCTCATCC
B1 showed a Kd [1] of 13.1 ± 0.4 nM and a Kd [2] of 46.8 ± 3.9 nM.
